The source of these data is patent publication US6358924B1, “GLP-1 formulations” (Eli Lilly and Company, priority 1997, dated 2002).

Series [1] is described as follows: Circular dichroism of Val^8-GLP-1 / GLP-1 secondary structure with bound DSS. The class given is physicochemical. The text has this: A slightly larger form of Val^8-GLP-1 with DSS molecule(s) bound to it was observed on size-exclusion chromatography (SEC) and the altered secondary structure was noted by circular dichroism experiments (CD).
(In general: CD spectra are sensitive to the conformation of chiral molecules.)

A short description of series [2]: Solution clarity of m-cresol-preserved Val^8-GLP-1 solution with other surfactants, Example 4. The class given is physicochemical. The settings on record: m-cresol about 3 mg/ml; for clarity of Val^8-GLP-1 solution with added surfactant: 10 μl surfactant in 500 μL of 1 mg/ml peptide, ambient temperature about 3 hours; for solution appearance: without any additives. The protocol: A formulation of the invention was prepared by dissolving Val^8-GLP-1(7-37)OH at 1 mg/ml in an aqueous solution containing 16 mg/ml glycerin and 10 mM sodium tribasic phosphate. The solution was adjusted to about pH 8.0 using 2N HCl.
(§1) The preservative m-cresol was prepared at a concentration of 100 mg/ml in absolute ethanol.
Various formulation excipients listed herein were added to 500 μL aliquots of the Val^8-GLP-1(7-37)OH solution in 3-ml glass vials. After stirring for about 45 minutes at ambient temperature, 15.8 μl of a 100 mg/ml m-cresol solution in absolute ethanol was added to give a m-cresol concentration of about 3 mg/ml.
Without any additives, the Val^8-GLP-1 solution becomes hazy at both ambient temperature and at 4° C.

The nature of series [3]: Storage stability (solution clarity, HPLC purity) of preserved Val^8-GLP-1(7-37)OH formulation with DSS 2:1, Example 2. Type of series: physicochemical. The settings on record: for solution appearance: DSS 2:1, m-cresol about 3.15 mg/ml; for HPLC purity after storage: DSS 2:1, m-cresol. The protocol:
A formulation of the invention was prepared by dissolving Val^8-GLP-1(7-37)OH at about 1.0 mg/ml in an aqueous solution containing 16 mg/ml glycerin and 10 mM sodium tribasic phosphate. The solution was adjusted to about pH 8.0 using 5N HCl. The solution was then filtered through 0.2μ and 0.02μ filters. The peptide concentration was quantified by ultraviolet (UV) analysis at 280 nm.
6.5 ml of the Val^8-GLP-1 solution was added to 1.62 mg of solid DSS, which had been dried from a 100 mg/ml solution in absolute ethanol, to give a 2:1 molar ratio of DSS to Val^8-GLP-1. After gently stirring 15 minutes at ambient temperature the solution was added to 20.5 mg of m-cresol, which had been dried from a 100 mg/ml solution in absolute ethanol, to give a m-cresol concentration of about 3.15 mg/ml. After stirring 15 minutes at ambient temperature, the solution was adjusted to about pH 7.7 and passed through a 0.2μ filter. Portions of this formulation were stored at 4° C. and at ambient temperature.
After 18 weeks, the formulations maintained at 4° C. and at ambient temperature were examined. Both solutions were clear.

A short description of series [4]: Storage stability (solution clarity, HPLC purity) of m-cresol-preserved Val^8-GLP-1(7-37)OH formulations with DSS, Example 1. Type of series: physicochemical. The settings on record: for time solution remained clear: 4° C.; for HPLC purity after storage: 6 weeks at 4° C. The protocol:
A formulation of the invention was prepared by dissolving Val^8-GLP-1(7-37)OH at 1 mg/ml in an aqueous solution containing 16 mg/ml glycerin and 10 mM sodium tribasic phosphate. The solution was adjusted to about pH 8.1 using 1N HCl.
as §1
Sodium docusate (DSS) was prepared at a concentration of 20 mg/ml in water with gentle warming on a hot plate.
To each of 500 μL aliquots of the Val^8-GLP-1(7-37)OH solution in 3-ml glass vials were added 0, 3.3, 6.6 or 16.5 μL of the DSS solution followed by 15.8 μL of the preservative m-cresol solution. After gentle mixing of the components in the vials by hand swirling the pH of each clear solution was-adjusted to pH 7.8. Replicate samples were incubated at 4° C., ambient temperature, and 37° C. Within 4 hours at ambient temperature, the samples containing 0 or 3.3 μL of the DSS solution had become hazy due to peptide denaturation.
After incubation for 16 hours at 37° C., all four types of samples were clear. The solutions were then incubated at 4° C. Again, the solutions containing 0 or 3.3 μL of the DSS solutions became, and remained, hazy.
The solutions containing 6.6 μL or 16.5 μL of the DSS solution, which correspond to 2:1 and 10:1 molar ratios DSS to Val^8-GLP-1(7-37)OH, respectively, remained clear at 4° C. for at least 6 weeks.

In series [5] the test system is beagle dogs clamped at an elevated glycemic level (200 mg/dl). Put plainly: Hyperglycemic clamp, glucose infusion rate after subcutaneous injection. The class given is in vivo. The settings on record: formulation containing DSS. On the procedure:
A portion of the formulation from Example 2 was injected subcutaneously into beagle dogs that were clamped at an elevated glycemic level (200 mg/dl). 3 nmoles/kg of Val^8-GLP-1 were injected into each animal. Glucose infusion rates needed to maintain hyperglycemia were measured for 2.5 hours after the injections and compared to injections of a vehicle control solution.

As to “GLP-1(7-37) (HAEGTFTSDVSSYLEGEAAKEFIAWLVKGRG; listed as Homo sapiens)”, in series [1] (GLP-1-DSS mixture, 2-day dialysis, CD study), the “reversion to alpha-helix conformation” value is recorded as “did not revert”.

As to Tween-80, the “clarity of Val^8-GLP-1 solution with added surfactant” value in series [2] is reported as “preserved solution clarity”.

Turning to Val^8-GLP-1(7-37)OH, the solution appearance result in series [3] (pH about 7.7, 18 weeks at 4° C.) is “clear”; in series [3] (pH about 7.7, 18 weeks at ambient temperature), “clear”; in series [2] (4° C.) it was “hazy”; in series [2] (ambient temperature), “hazy”; in series [4] (0 μL DSS solution, incubated at 4° C. after 16 hours at 37° C.) it was “hazy”; in series [4] (0 μL DSS solution, m-cresol, pH 7.8, within 4 hours at ambient temperature), “hazy”. The solution appearance result in series [4] (3.3 μL DSS solution, incubated at 4° C. after 16 hours at 37° C.) is “hazy”; in series [4] (3.3 μL DSS solution, m-cresol, pH 7.8, within 4 hours at ambient temperature), “hazy”; in series [4] (all four sample types (0, 3.3, 6.6, 16.5 μL DSS solution), after incubation for 16 hours at 37° C.), “clear”. For the same substance, the “HPLC purity after storage” value in series [3] (18 weeks at 4° C.) is 98.3%; in series [3] (18 weeks at ambient temperature), 90.8%; in series [4] (6.6 μL DSS solution (2:1 molar ratio)), 98.3%; in series [4] (16.5 μL DSS solution (10:1 molar ratio)) it was 97.2%. For the same substance, in series [1] (circular dichroism), the “secondary structure upon binding of DSS” value was “converted from mostly alpha-helix to mostly a beta sheet”. Moreover, the “time solution remained clear” value in series [4] (6.6 μL DSS solution (2:1 molar ratio DSS to peptide)) and in series [4] (16.5 μL DSS solution (10:1 molar ratio DSS to peptide)) was “at least 6 weeks” throughout. For the same substance, the “solution stability on addition of DSS” value in series [4] (DSS 2:1 molar vs. peptide, isotonic, pH 7.8, m-cresol) is recorded as “dramatically improved”. Also, the “insulinotropic-like activity versus Val^8-GLP-1 in phosphate buffer solution (PBS formulation)” value in series [5] is listed as “comparable in potency”.

As for Tween-40, the “clarity of Val^8-GLP-1 solution with added surfactant” value in series [2] is “preserved solution clarity”.
